Experimental data from patent US7381413.

Biological target: Fas (CD95) on L1210 and L1210/DDP cells (UniProt P25446)
Assay: cell-based or functional assay

Chain of UniProt P25446 (P25446 22-327 limits assumed): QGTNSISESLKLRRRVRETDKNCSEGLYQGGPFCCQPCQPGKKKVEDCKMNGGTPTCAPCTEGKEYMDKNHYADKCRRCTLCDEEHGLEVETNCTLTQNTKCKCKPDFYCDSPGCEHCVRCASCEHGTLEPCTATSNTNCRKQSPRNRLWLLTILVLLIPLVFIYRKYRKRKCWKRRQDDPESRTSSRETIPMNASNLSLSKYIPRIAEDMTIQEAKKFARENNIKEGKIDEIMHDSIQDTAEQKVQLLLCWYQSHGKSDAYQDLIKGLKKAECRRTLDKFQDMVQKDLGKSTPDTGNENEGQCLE

- % dead cells over background of untreated cells, L1210/0 on anti-Fas coated plates: 80%
- % dead cells over background of untreated cells, L1210/DDP on anti-Fas coated plates: 46.6%
Substance: anti-Fas antibody Jo2.2 (Pharmingen)
